The values below come from US20050058645A1 (ZENYTH OPERATIONS, published 2005).

B1: mouse IL-13 (ligand, UniProt P20109 21-131, looked up)
chain: GPVPRSVSLPLTLKELIEELSNITQDQTPLCNGSMVWSVDLAAGGFCVALDSLTNISNCNAIYRTQRILHGLCNRKAPTTVSSLPDTKIEVAHFITKLLSYTKQLFRHGPF
B2: chimeric mouse IL-13Rα1-Fc (Fc fusion, UniProt O09030 26-340, looked up)
chain: ATEVQPPVTNLSVSVENLCTIIWTWSPPEGASPNCTLRYFSHFDDQQDKKIAPETHRKEELPLDEKICLQVGSQCSANESEKPSPLVKKCISPPEGDPESAVTELKCIWHNLSYMKCSWLPGRNTSPDTHYTLYYWYSSLEKSRQCENIYREGQHIACSFKLTKVEPSFEHQNVQIMVKDNAGKIRPSCKIVSLTSYVKPDPPHIKHLLLKNGALLVQWKNPQNFRSRCLTYEVEVNNTQTDRHNILEVEEDKCQNSESDRNMEGTSCFQLPGVLADAVYTVRVRVKTNKLCFDDNKLWSDWSEAQSIGKEQNST
notes: extracellular domain; Bought (R & D Systems); Preformed disulphide-bonded dimer; also called mIL-13Rα1-Fc; chimeric mouse receptor; not shown: Fc portion of human IgG
B3: soluble hIL-13Rα1 (ECD) (receptor)
chain: GGGGAAPTETQPPVTNLSVSVENLCTVIWTWNPPEGASSNCSLWYFSHFGDKQDKKIAPETRRSIEVPLNERICLQVGSQCSTNESEKPSILVEKCISPPEGDPESAVTELQCIWHNLSYMKCSWLPGRNTSPDTNYTLYYWHRSLEKIHQCENIFREGQYFGCSFDLTKVKDSSFEQHSVQIMVKDNAGKIKPSFNIVPLTSRVKPDPPHIKNLSFHNDDLYVQWENPQNFISRCLFYEVEVNNSQTETHNVFYVQEAKCENPEFERNVENTSCFMVPGVLPDTLNTVRIRVKTNKLCYEDDKLWSNWSQEMSIGKKRNST
notes: also called immobilized hIL-13Rα1 (ECD)
B4: chimeric human IL-13Rα1-Fc (Fc fusion)
chain: B3 chain
notes: Bought (R & D Systems); Extracellular domain of IL-13Rα1 fused to Fc of human IgG; Expressed as preformed disulphide-bonded dimer; also called hIL-13Rα1-Fc; chimeric human receptor; not shown: Fc portion of human IgG
B5: CDR-grafted 1D9 Fab (Fab, V domains shown)
VH: EVQLVESGGGLVQPGGSLRLSCAASGFTFSGYGMSWVRQAPGKGLEWVATISGLGGYTYYPDSVKGRFTISRDNSKNTLYLQMNSLRAEDTAVYYCARRFYGDYVGAMDYWGQGTLVTVSS
VL: DIQMTQSPSSLSASVGDRVTITCRSSKSLLHSNGITYLYWYQQKPGKAPKLLIYQMSNLASGVPSRFSGSGSGTDFTLTISSLQPEDFATYYCAQNLELPFTFGQGTKVEIKR

Assay [1] deals with B4. Kind of assay: Biosensor, immobilized mouse IL-13, chimeric receptor in solution. From the text: (§1) A qualitative comparison of sensorgrams obtained in this study to data obtained previously with monomeric receptor protein, indicated a substantial improvement in binding kinetics. This improvement is attributed to a much slower off-rate for the dimeric form, compared with the monomeric form, of the receptor. To further quantify this interaction a complete dose-response analysis using both human and mouse chimeric receptor proteins and immobilized human and mouse IL-13 was undertaken.

For assay [2], the target named is B2. Described as above.
Source text: as §1

The assay “mouse IL-13” addresses B1. Kind of assay: Biosensor, immobilized IL-13.
A further assay has as its target human IL-13 (human, UniProt P35225 35-146, limits assumed). Kind of assay: Biosensor, immobilized IL-13.
In assay [3] the target is B5. Kind of assay: Competition ELISA: phage displayed CDR-grafted 1D9 Fab on plate bound hIL-13Rα1-Fc (ECD) (2.5 µg/ml), competed by titrated soluble hIL-13Rα1 (ECD). In general terms: In an ELISA, binding on a coated surface is turned into a signal by an enzyme label.
Assay [4] has as its target B5. The assay can be described thus: Competition ELISA: phage displayed Fabs on plate bound hIL-13Rα1-Fc (ECD), competed by soluble hIL-13Rα1 (ECD); ratio of the IC50 of the CDR-graft to that of the chimera.
Assay [5] concerns the target B5. The assay can be described thus: Biosensor competition assay: soluble CDR-grafted 1D9 Fab on immobilized hIL-13Rα1 (ECD), competed by titrated soluble hIL-13Rα1 (ECD). The protocol:
(§2) FIGS. 11A and 11B are graphical representations of binding affinities of the chimeric and CDR-grafted Fab fragment. […] (B) Biosensor competition assay of soluble 1D9 chimeric or CDR-grafted Fab binding to immobilized hIL-13Rα1 (ECD) competed by soluble hIL-13Rα1 (ECD). Fold-difference in affinity is calculated from (IC₅₀/IC₅₀).

Assay [6] addresses B5. The assay can be described thus: Biosensor competition assay: soluble Fabs on immobilized hIL-13Rα1 (ECD), competed by soluble hIL-13Rα1 (ECD); ratio of the IC50 of the CDR-graft to that of the chimera. Here is the method: as §2
The target in assay [7] is T1, mouse-human chimeric 1D9 Fab (human, UniProt P01857 1-103 = IgG part; P01834 1-107, limits assumed). Kind of assay: Competition ELISA: phage displayed chimeric 1D9 Fab on plate bound hIL-13Rα1-Fc (ECD) (2.5 µg/ml), competed by titrated soluble hIL-13Rα1 (ECD).
Assay [8] addresses T1, mouse-human chimeric 1D9 Fab. The assay can be described thus: Biosensor competition assay: soluble chimeric 1D9 Fab on immobilized hIL-13Rα1 (ECD), competed by titrated soluble hIL-13Rα1 (ECD). Here is the method: as §2
Assay [9] deals with T2, IL-13 (species not stated).
T2 construct: the 100-fold comparison
Kind of assay: Biosensor, immobilized IL-13.

For the assay “soluble hIL-13Rα1 (ECD)”, the target named is B3. The assay can be described thus: competition ELISA (phage displayed Fab) and Biacore competition (soluble Fab). Here is the method: as §2
The CDR-grafted Fab has similar affinity for IL-13Rα1 as the reference murine-human chimeric Fab.

Assay [10] addresses B4. The assay can be described thus: ELISA: phage displayed Fab on plate bound hIL-13Rα1-Fc (ECD) (2.5 µg/ml), competed by soluble hIL-13Rα1 (ECD).

T1 sequence (VH, as listed by the source limits assumed, chain 1 of 2): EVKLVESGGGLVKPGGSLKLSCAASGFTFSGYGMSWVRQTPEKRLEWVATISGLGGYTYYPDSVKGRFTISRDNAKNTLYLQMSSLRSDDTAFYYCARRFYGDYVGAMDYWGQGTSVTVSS
T1 sequence (VL, as listed by the source limits assumed, chain 2 of 2): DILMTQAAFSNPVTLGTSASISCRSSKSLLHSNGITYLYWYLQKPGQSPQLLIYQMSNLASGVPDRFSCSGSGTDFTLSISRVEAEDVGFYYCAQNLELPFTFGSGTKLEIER
human IL-13, sequence (P35225 35-146 limits assumed): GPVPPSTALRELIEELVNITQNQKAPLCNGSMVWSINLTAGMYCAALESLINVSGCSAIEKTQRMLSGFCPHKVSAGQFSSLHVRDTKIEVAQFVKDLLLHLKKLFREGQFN

Take B1: the equilibrium dissociation constant (Kd) (as a rule, the equilibrium constant for the complex coming apart) in [1] was determined as 15.1 nM; in [2] it was 0.536 nM.
On to B2, for which the “fold greater affinity compared with the chimeric human receptor” value with mouse IL-13 and in the assay with human IL-13 was about 10 fold throughout.
On to B3, for which the IC50 (commonly the concentration at which inhibition is half-maximal) in the assay with CDR-grafted 1D9 Fab [3] was 0.127 µg/mL; with CDR-grafted 1D9 Fab [5], 9.61 nM; in assay [7], 0.045 µg/mL; in [8] it was 6.66 nM. Further, the “fold difference in affinity (CDR-graft against Chimera, IC50/IC50)” value with CDR-grafted 1D9 Fab [4] is about 3 fold; in the assay with CDR-grafted 1D9 Fab [6], about 1.5 fold.
For B4, the “fold increase in affinity compared with the monomeric form of the receptor” value in assay [9] came out at 100 fold.
Regarding B5, the binding result (with soluble hIL-13Rα1 (ECD); in [10]) was “binds” throughout.
